Target: phosphorylated PD-1 cytosolic domain, bound to large unilamellar vesicles (LUVs)
Test: FRET or BRET

Shp1, full length, SNAP-Tag fused, labeled with SNAP-Cell 505 (from UniProt P29350 1-595) (enzyme)
fold selectivity of PD-1 toward full-length Shp2 over Shp1: 29 fold
